Laboratory results reported in article doi:10.1101/2021.11.08.467404.

Assays:
[1] = biological target: microtubules polymerised from porcine brain tubulin (porcine) (UniProt P02550); assay: single-molecule TIRF microscopy on immobilised microtubules
[2] = biological target: microtubules polymerised from porcine brain tubulin (porcine) (UniProt P02550); assay: TIRF microscopy of fluorescent protein on immobilised microtubules
[3] = biological target: microtubules polymerised from porcine brain tubulin (porcine) (UniProt P02550); assay: FRAP of fluorescent protein on immobilised microtubules

Sequence of UniProt P02550 (P02550 whole entry): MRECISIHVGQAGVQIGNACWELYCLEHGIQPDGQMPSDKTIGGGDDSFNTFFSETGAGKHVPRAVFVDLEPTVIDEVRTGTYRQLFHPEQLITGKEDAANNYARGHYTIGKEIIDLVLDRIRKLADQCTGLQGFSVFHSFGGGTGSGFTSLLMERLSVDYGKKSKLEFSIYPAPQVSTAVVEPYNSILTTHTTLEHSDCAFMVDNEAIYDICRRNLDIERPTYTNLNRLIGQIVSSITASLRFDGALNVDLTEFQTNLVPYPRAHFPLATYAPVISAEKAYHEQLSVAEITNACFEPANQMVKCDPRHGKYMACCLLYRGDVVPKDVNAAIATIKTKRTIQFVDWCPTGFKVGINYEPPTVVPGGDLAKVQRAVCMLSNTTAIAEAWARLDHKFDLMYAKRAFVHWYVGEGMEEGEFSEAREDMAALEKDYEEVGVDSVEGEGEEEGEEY

Substance: TMR-MAP2c (natural protein)
- fold increase of dwell time inside GFP-MAP2c envelopes against outside [1]: 3 fold

Substance: kinesin-1-GFP (from UniProt P33176 1-963) (natural protein)
- landing rate (with 600 nM tau-mCherry) [2]: 0.23 μm^-1s^-1

Substance: TMR-MAP4 (full-length human MAP4, isoform 1) (from UniProt P27816 1-1152) (natural protein)
- fold dwell time of single molecules against MAP2c [1]: 2 fold

Substance: GFP-MAP2c (natural protein)
- fold turnover (FRAP) outside against inside envelopes [3]: 4 fold
